Tests used:
factor IXaβ [1] = molecular target: T1, factor IXaβ (UniProt P00740 47-191; P00740 227-461); assay: factor Xa generation assay on phospholipid vesicles, factor IXa titrated with factor VIIIa
T1 construct: Bought reagent
Protocol: (§1) Factor VIII cofactor activity, factor IXa-factor VIIIa affinity, and kinetic parameters were determined using factor Xa generation assays. Reactions were performed in the presence of either phospholipid vesicles, non-activated platelets, or platelets activated by SFLLRN-amide (50 μM).

factor IXaβ [2] = molecular target: T1, factor IXaβ; assay: factor Xa generation assay on activated platelets (SFLLRN-amide), factor IXa titrated with factor VIIIa
Protocol: as §1

factor IXaβ [3] = molecular target: T1, factor IXaβ; assay: factor Xa generation assay on non-activated platelets, factor IXa titrated with factor VIIIa
Protocol: as §1

T1 sequence (P00740 47-191 limits assumed, form in doubt, chain 1 of 2): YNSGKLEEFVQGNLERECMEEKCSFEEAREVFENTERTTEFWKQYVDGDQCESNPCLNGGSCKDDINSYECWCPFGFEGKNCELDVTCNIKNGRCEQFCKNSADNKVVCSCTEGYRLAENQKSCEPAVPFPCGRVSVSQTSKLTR
T1 sequence (P00740 227-461 limits assumed, form in doubt, chain 2 of 2): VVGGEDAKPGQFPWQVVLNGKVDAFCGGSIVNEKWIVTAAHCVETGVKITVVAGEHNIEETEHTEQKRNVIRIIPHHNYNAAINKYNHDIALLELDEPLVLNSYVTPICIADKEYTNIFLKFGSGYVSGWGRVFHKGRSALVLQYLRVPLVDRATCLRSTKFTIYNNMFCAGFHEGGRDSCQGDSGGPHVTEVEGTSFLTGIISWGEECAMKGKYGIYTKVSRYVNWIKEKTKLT

B1: factor VIIIa E113A (thrombin-activated B-domainless factor VIII bearing Glu113Ala) (other)
chain 1: ATRRYYLGAVELSWDYMQSDLGELPVDARFPPRVPKSFPFNTSVVYKKTLFVEFTVHLFNIAKPRPPWMGLLGPTIQAEVYDTVVITLKNMASHPVSLHAVGVSYWKASEGAAYDDQTSQREKEDDKVFPGGSHTYVWQVLKENGPMASDPLCLTYSYLSHVDLVKDLNSGLIGALLVCREGSLAKEKTQTLHKFILLFAVFDEGKSWHSETKNSLMQDRDAASARAWPKMHTVNGYVNRSLPGLIGCHRKSVYWHVIGMGTTPEVHSIFLEGHTFLVRNHRQASLEISPITFLTAQTLLMDLGQFLLFCHISSHQHDGMEAYVKVDSCPEEPQLRMKNNEEAEDYDDDLTDSEMDVVRFDDDNSPSFIQIR
chain 2: SVAKKHPKTWVHYIAAEEEDWDYAPLVLAPDDRSYKSQYLNNGPQRIGRKYKKVRFMAYTDETFKTREAIQHESGILGPLLYGEVGDTLLIIFKNQASRPYNIYPHGITDVRPLYSRRLPKGVKHLKDFPILPGEIFKYKWTVTVEDGPTKSDPRCLTRYYSSFVNMERDLASGLIGPLLICYKESVDQRGNQIMSDKRNVILFSVFDENRSWYLTENIQRFLPNPAGVQLEDPEFQASNIMHSINGYVFDSLQLSVCLHEVAYWYILSIGAQTDFLSVFFSGYTFKHKMVYEDTLTLFPFSGETVFMSMENPGLWILGCHNSDFRNRGMTALLKVSSCDKNTGDYYEDSYEDISAYLLSKNNAIEPR
chain 3: SFQKKTRHYFIAAVERLWDYGMSSSPHVLRNRAQSGSVPQFKKVVFQEFTDGSFTQPLYRGELNEHLGLLGPYIRAEVEDNIMVTFRNQASRPYSFYSSLISYEEDQRQGAEPRKNFVKPNETKTYFWKVQHHMAPTKDEFDCKAWAYFSDVDLEKDVHSGLIGPLLVCHTNTLNPAHGRQVTVQEFALFFTIFDETKSWYFTENMERNCRAPCNIQMEDPTFKENYRFHAINGYIMDTLPGLVMAQDQRIRWYLLSMGSNENIHSIHFSGHVFTVRKKEEYKMALYNLYPGVFETVEMLPSKAGIWRVECLIGEHLHAGMSTLFLVYSNKCQTPLGMASGHIRDFQITASGQYGQWAPKLARLHYSGSINAWSTKEPFSWIKVDLLAPMIIHGIKTQGARQKFSSLYISQFIIMYSLDGKKWQTYRGNSTGTLMVFFGNVDSSGIKHNIFNPPIIARYIRLHPTHYSIRSTLRMELMGCDLNSCSMPLGMESKAISDAQITASSYFTNMFATWSPSKARLHLQGRSNAWRPQVNNPKEWLQVDFQKTMKVTGVTTQGVKSLLTSMYVKEFLISSSQDGHQWTLFFQNGKVKVFQGNQDSFTPVVNSLDPPLLTRYLRIHPQSWVHQIALRMEVLGCEAQDLY
notes: also called factor VIII E113A; Factor VIII:E113A
Which Kd (factor IXaβ [1]) does the source give for B1 here?
The Kd was 5 nM.

What about the Kd (factor IXaβ [2]) of the same binder?
The Kd was 6 nM.

What about the Kd (factor IXaβ [3]) of the same binder?
The Kd was 5.7 nM.
